Laboratory results published in PMC4048032.

Target: VopL C-terminal Domain (VCD), residues 247–484 (Vibrio parahaemolyticus) (UniProt Q87GE5)
Experiment: crystal structure

## VopL C-terminal Domain (VCD), residues 247–484 (from UniProt Q87GE5 247-484) (domain or fragment)
  stoichiometry N: 2
